Assay results as given in the DeepSol protein solubility set.

test: soluble on expression in E. coli; label from the status in PepcDB or PDB records

Sequence | soluble on expression in E. coli
MSLSIPTIKQVRAFVLRGGGADYHDQGDGHWIDDHISTPMGKYPEYRQSRRSFGINVLGTLVVEIEASDGNVGFAVTTGGEPAAYIVEKHLARFLEGARVTDIERIWDQMYNSTLYYGRKGLVINTISGVDLALWDLLGKVRREPVHQLLGGAVRDELQFYATGARPDLAQKMGFIGGKMPLHHGPSEGEEGLKKNLEELATMRERVGPDFWLMFDCWMSLDLNYATRLARGAREYGLKWIEEALPPDDYWGYAELRRNAPTGMMVTTGEHEATRWGFRMLLEMGCCDIIQPDVGWCGGVTELLKISALADAHNALVVPHGSSVYSYHFVATRQNSPFAEFLMMAPKADQVVPMFHPQLLGEPVPENGRMRLSRLDQPGFGVTLNPECQLHRPYTHEGHHHHHH | soluble
MSLSITRRVRLSVDTCCYEAEIAGILRPQLLKGRMSVREEFDAWAAEGKDRGMEDRHWHTAKHVLARMPVEPGDTVLDLGTGSGYALRALRDTNDAGPCYGLDGSPEMLRNAREYTDDDGIGFLRGDFDALPFATDSIDHVFSMEAFYYASDPPHTLEEIARVLRPGGTANIAVNYYEENVHSHEWQEFIDIEMTRWSADEYREAFREAGLAVAAQDTIPDREVEIPPADTFPTDEFETREAMVERYRELGTLLTVGVATEGHHHHHH | soluble
MSLSIYQASIPTFLRTLGNLSAILKKAAAHAEAKNIDPRIFIDARLAPDMFPLARQVQIASDAAKGAGARLAGLEVPSYADTETTFDELQARIARTVEFLEGIREEQLDGAEERNVTLKVRGQEISFNGRDFLFGFALPNFFFHVTTAYAILRHNGVELGKMDFLGGA | not soluble
MSLSKFVLGGLWPETGSLAYLAPPELAAEKLAVKDINDAGGVLGNKITTVDADTSDADHADQNTSAAQSVLSKNPSFIIGPASSSVVKNTYKSITSQNIPMLSMGATSASFSGLSDYFFRTVAPDTVQGAVMGNLIAQDGVQKLAIAVFNDEYGTGLRDTIVKTASAAGVDIIYGEKDTFDPTETNFSSIATAIKASNPDATLVIAFDQTKPLLKALASAGVNTKKLYFVDGNTSDYSSELDAGLLEGSKGTIPGINPSDDFVKRLESTGVDLKNTTTYGAETYDGIILAALAAQKGGSADGKTIQANMAAVSGSTKGEKCDSYKACVALLKDGKEIQYKGQTSIGAFNDAHDPSSASIGVYKYDADNKPVFDHSQEGSVPKAEGHHHHHH | soluble
MSLSKSTFEIKNGHFYRNGKITPVLSGEMHYARIPHQYWRHRLQMMKGMGLNTVATYVFWNLHEPEPGKWDFTGDKNLAEFIKTAGEEGMMVILRPGPYVCAEWEFGGYPWWLQNVKGMEIRRDNPEFLKYTKAYIDRLYKEVGSLQCTKGGPIVMVQCENEFGSYVAQRKDIPLEEHRAYNAKIKQQLADAGFNVPLFTSDGSWLFEGGATPGALPTANGESDIENLKKVVDQYHDGKGPYMVAEFYPGWLSHWAEPFPQIGASGIARQTEKYLQNDVSFNFYMVHGGTNFGFTSGANYDKKRDIQPDMTSYDYDAPISEAGWVTPKYDSIRNVIKKYVKYTIPEAPAPNPVIEIPSIQLNKVADVLAFAEKQKPVSSDTPLTFEQLNQGYGYVLYTRHFNQPISGTLEIPGLRDYAVVYVDGEQVGVLNRNTKTYSMEIEVPFNATLQILVENMGRINYGSEIVHNTKGIISPVQIAGKEIVGGWDMYQLPMDEMPDLTKLKADTHKNVPSEVAKLKGCPVLYEGTFTLDKVGDTFMDMESWGKGIVFVNGVNIGRYWKVGPQQTLYVPGVWLKKGENKIVIFEQLNETPQTEVKTVKTPVLMKLKGEGHHHHHH | soluble
MSLSLEYKGTFGSINAGYADWNSGFVNTHRGEVWKVTADFGVNFKEAEFYSFYESNVLNHAVAGRNHTVSAMTHVRLFDSDMTFFGKIYGQWDNSWGDDLDMFYGFGYLGWNGEWGFFKPYIGLHNQSGDYVSAKYGQTNGWNGYVVGWTAVLPFTLFDEKFVLSNWNEIELDRNDAYTEQQFGRNGLNGGLTIAWKFYPRWKASVTWRYFDNKLGYDGFGDQMIYMLGYDFEGHHHHHH | not soluble
MSLSLKLPKADRSIETYRLAASRTFPARLEGPLNRIAFSAVHTVADPFADNDPWLSVAVDWDKTIAFREHVWDLGLGVAEAMDTAQRGMGLDWPTSLELITRSVAAAKRRNALVFSGAGTDHLAVEDARTVDDVIRAYEEQISAVEKVGGRIILMASRALAKLGRNADDYAKVYDRVLSQVREPVIIHWLGDMFDPALTGYWGTKDLDKAMDVAVAVINANAAKVDGVKVSLLDKQREIDMRRRLDKRIRMYTGDDFNYAELIAGDSQGFSHALLGIFDAIAPAASYALSRLAAGDEAGFHDVLGPTVPLSRHIFKAPTRFYKTGVVFMAYLNGHQDHFTMVGGQESARSMLHLAELFRLADQAGLLANPELATRRMTTVLASHGIESEGHHHHHH | soluble
MSLSLLEVCADLCGQQTLSLFQSSPSVQQVSQTRDLQDIIGQQQGKRALEIAAAGNHNLLFLGPPGTGKTMLASRLCDLLPEMSDEEAMETASIASLTQQEINQHNWKLRPFRAPHHSSSMAALVGGGTIPRPGEISLAHNGLLFLDEMPEFERKVLDSLREPLESGEIVISRAQGKTRFPARFQLVGALNPSPTGYYEGSQARANPQSILRYLSRLSGPLLDRFDMSIEIPALPKGTLANGGDRGESTAAVRQRVWVARERMLARSGKVNALLQSREIEQYCPLLKADAEFLESALHRLGLSIRAYHRIIKVARTIADLQGEAQIARPHLAEALGYRAMDRLLKQLSAQNEGHHHHHH | not soluble
MSLSLMLTVETRQAVNPDYAKTLDTEGLRRHFLANDMFRSGEIRLIYTHYDRFVMGGAVPNGAPLTLDKVEETKTPSFLDRREMGIVNIGETGTVSAGDETYTLNRGDVLYLGAGSRAVTFDGAGRFYITSCPAHRSLPAKLVSLADSKEVKLGATETSNKRTINQFIHPLVMESCQLVLGYTMLEDGSVWNTIPSHIHDRRMEAYLYFGMDEKSRVLHLMGEPQETRHLFISNEEGAISPPWSIHSGAGIGSYTFIWAMAGDNVDYTDMDFIQPGDLKEGHHHHHH | soluble
MSLSLVIAAGTILGACGNSEKSSGSGEGKNKFSVAMVTDVGGVDDKSFNQSAWEGIQAFGKENGLKKGKNGYDYLQSKSDADYTTNLNKLARENFDLIYGVGYLMEDSISEIADQRKNTNFAIIDAVVDKDNVASITFKEQEGSFLVGVAAALSSKSGKIGFVGGMESELIKKFEVGFRAGVQAVNPKAVVEVKYAGGFDKADVGKATAESMYKSGVDVIYHSAGATGTGVFTEAKNLKKEDPKRDVWVIGVDKDQYAEGQVEGTDDNVTLTSMVKKVDTVVEDVTKKASDGKFPGGETLTYGLDQDGVGISPSKQNLSDDVIKAVDKWKKKIIDGLEIPATEKELKTFKAEEGGSHHHHHH | soluble
MSLSMSKRLLLFDFDETYFKHNTNEEDLSHLREMEKLLEKLTNNNEVMTAVLTGSTFQSVMDKMDQVNMTFKPLHIFSDLSSKMFTWNNGEYIESETYKKKVFSEPFLFEDIEDILRHISAQYNVEFIPQRAFEGNETHYNFYFHSTGNHSNDRRILEALVRYANDQNYTARFSRSNPLAGDPENAYDIDFTPSNAGKLYATQFLMKKYNIPVKSILGFGDSGNDEAYLSYLEHAYLMSNSRDEALKQKFRLTKYPYYQGITLHVKEFVEGKYDYEGHHHHHH | soluble
MSLSNAVRITALHTRLARIPLPRPLKTSIHEIADVCCLLVSLETDAGVTGEGYGFCFNADRLGAIAQFTQSLAPLVVGRDPHDVEALWTDFLRGCNFYGQSGVSILAYNPIDIACWDIVGKLAGRPLYKLFGAHRERVPVYASAGLWLSSSRDELRDEARQFLAQGFKAMKMRLGSPDWKEDIARVEVVRDAIGEQVTLMADANQGLDLTRALRLGRELARFDLAWFEEPVPTWDDDSAAEIVRRLPMPIASGETEYTRYGIRRMARERAAGVFMPDLQRMGGYTEMLKAVRYLAAHDLPVAPHIFTEHSLHIVAAAGNATWAEHMPWFEPLFHERMEIGADGCIAAPDRPGTGFTFDWQRIDPYLISPRTAGGSEGHHHHHH | soluble
MSLSNERSSEKTLQNLKTQLLEDSSFLSKLREKITPHIDDHDIQKIIRDYLLTNPEIIIEMQLILQDKLEKQSAQNTQKQASIINSLKKQIFQSPYDAVLGNPNGKRVLVDFFDYNCGYCKISYPYIENLIKEYPDLRVIIKDLPILGSDSMAAHIVAYAFRKQFPEKYPQFYKELLTHQSRANEIKAIKIAVSLGADEKKLRNAIKDSSLQNAFKKNIQIASRLNITGTPSYIIGDKLLIGAVSEEILKEAIENMQEGHHHHHH | soluble
MSLSNKDIRVVVGMSGGVDSSVTAHVLKEQGYDVIGIFMKNWDDTDENGVCTATEDYNDVIEVCNQIGIPYYAVNFEKEYWDKVFTYFLDEYKKGRTPNPDVMCNKEIKFKAFLDHAMNLGADYVATGHYARIHRHEDGHVEMLRGVDNNKDQTYFLNQLSQQQLSKVMFPIGDIEKSEVRRIAEEQGLVTAKKKDSTGICFIGEKNFKTFLSQYLPAQPGDMITLDGKKMGKHSGLMYYTIGQRHGLGIGGDGDPWFVVGKNLKDNVLYVEQGFHHDALYSDYLIASDYSFVNPEDNDLDQGFECTAKFRYRQKDTKVFVKRENDHALRVTFAEPVRAITPGQAVVFYQGDVCLGGATIDDVFKNEGQLNYVVEGHHHHHH | soluble
MSLSNLTIDVQTVTQKGKKPYIEYQINRPSFHNFSDSKFQNKLNFYYKKSTDKFKTRLEKDAKKYYKETEGSSTPFHPYVANVDYKVSLNKPPLLSLYLNYYQYTGGAHGMYTWKANTFDLKEKKLLHLDDLFQQEDKYKEVIRAEIVRKIKQNEGIYFPDATEKVMSTKKFHFFLEPNNLVIYFPLYEIAPYSSGIPQFRIPYTLLREYLKPSYQNILIDNKEGHHHHHH | soluble
MSLSNPLNDLSKKYLTKGLNLASWAEANKITSANPKDWKYNEAIIKLQAEQGLLGIRFPIDLDLYVVDRLNVLNGTKKKIEIEPMLYTLMDSMNIWTKRYGLSLTIDYHAYDGSYNRASSKDPKFREAVSSLWRVVAQHFVKEKREDLFFELTNEPCLSLPEGEYIDQTDWTLLAQMMIDSIRRVDKTRPIIFGDTKWYSLDELIKNKPLKDPYVIYCFHMYDPFLFTHQGASWANMGTMKNIPFPYSPERWSTEFRDFGIVDGTPAWVKDLAKRYYQEGNKQFIKNRLAKVKNWAYEYNVPLICNEWGALPNTAKIEDLNAYFKTMGEIFEEMDISWQVWFGIMDSDYKLLPGMAEALHLKEGHHHHHH | soluble
MSLSNYSTGELAKLCNVTTRTIQYYDRKGILKPQGFTEGKRRVYTEQQRQTLELILLLKDLGCALSDIDMLLKGEGTLKTLNTLLTMKQQEINQQVKQQQAVLNKIKNVQYYVNEASTSPITHLKDIEHVMSKSAEGHHHHHH | soluble
MSLSPPLTLNPEQAVAVASIFEHIHHYQCFLLQGVTGSGKTEVYLHVIAKILEQGKQVLVLVPEIGLTPQLLSRFTARFNHPITVLHSNLNESERQIAWQLAKENKVKMVIGTRSAVFTPLPNLGLIIIDEEHDSSLKQMEGVRYSARDTALMRAHLANIPIILGTATPSLETIHNCKQKKYNLLRLTHKAASTTPLHYQLIDLRSQMVQHGLALPTLKIIENHLLQQNQVLVFINRRGFAPVLLCHQCGWMVDCKACDSHLTLHKQAGQMICHHCGLTQRIPLFCNNCQSKELIPVGSGTQRIYEFLSHQFPDTNVLRIDRDEVRKKNSLNSHLDKINKGEAQLIIGTQMLAKGHHFPRLSLVVVVDADAGFYNQDFRAIEHLGQLLTQVSGRAGRAEHPGQVLIQTYLPDHPLLNLLIQHGYDEFANALLISRQEAEMPPFQFLAVIRAQGRTVSKVDQFLKATKDQIQAHPLTVLGPAPAPLPRKANQHRMQLLIKSPSRKVLKSSLTQLREWLTMNKLSNGIRWNVDVDPMDLSEGHHHHHH | not soluble
